These results are taken from US20110301228.

The target of the series is native rat tail collagen type I (BD Biosciences), P02454.
Sequence of native rat tail collagen type I (BD Biosciences), P02454 (P02454 152-1207, chain 1 of 2): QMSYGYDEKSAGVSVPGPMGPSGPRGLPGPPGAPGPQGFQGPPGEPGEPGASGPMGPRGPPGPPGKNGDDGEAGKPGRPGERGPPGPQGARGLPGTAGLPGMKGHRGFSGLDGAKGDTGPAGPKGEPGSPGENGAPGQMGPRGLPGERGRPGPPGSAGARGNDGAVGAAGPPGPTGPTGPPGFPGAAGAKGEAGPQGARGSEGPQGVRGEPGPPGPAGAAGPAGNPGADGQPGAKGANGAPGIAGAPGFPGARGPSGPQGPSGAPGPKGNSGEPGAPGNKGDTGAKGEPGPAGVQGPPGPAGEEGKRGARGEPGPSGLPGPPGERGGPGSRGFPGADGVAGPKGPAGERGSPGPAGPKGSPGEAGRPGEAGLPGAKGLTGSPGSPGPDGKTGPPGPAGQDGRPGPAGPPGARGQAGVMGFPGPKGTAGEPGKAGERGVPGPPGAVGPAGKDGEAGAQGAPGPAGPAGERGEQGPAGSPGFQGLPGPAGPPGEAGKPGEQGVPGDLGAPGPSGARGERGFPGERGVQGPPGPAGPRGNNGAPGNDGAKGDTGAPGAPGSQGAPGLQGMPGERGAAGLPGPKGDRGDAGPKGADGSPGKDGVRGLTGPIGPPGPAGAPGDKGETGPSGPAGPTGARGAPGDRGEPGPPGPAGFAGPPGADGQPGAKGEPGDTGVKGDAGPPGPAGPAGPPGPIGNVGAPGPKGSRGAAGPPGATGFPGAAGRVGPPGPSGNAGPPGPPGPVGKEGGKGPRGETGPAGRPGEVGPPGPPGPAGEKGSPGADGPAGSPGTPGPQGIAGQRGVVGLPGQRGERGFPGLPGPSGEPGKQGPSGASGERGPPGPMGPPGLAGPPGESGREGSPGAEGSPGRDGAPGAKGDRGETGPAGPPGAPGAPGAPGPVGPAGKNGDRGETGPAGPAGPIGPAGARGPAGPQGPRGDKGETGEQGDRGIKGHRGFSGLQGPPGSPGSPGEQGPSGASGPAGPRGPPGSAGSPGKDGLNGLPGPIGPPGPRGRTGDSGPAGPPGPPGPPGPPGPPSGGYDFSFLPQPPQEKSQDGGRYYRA
Sequence of native rat tail collagen type I (BD Biosciences), P02454 (chain, as listed by the source, chain 2 of 2): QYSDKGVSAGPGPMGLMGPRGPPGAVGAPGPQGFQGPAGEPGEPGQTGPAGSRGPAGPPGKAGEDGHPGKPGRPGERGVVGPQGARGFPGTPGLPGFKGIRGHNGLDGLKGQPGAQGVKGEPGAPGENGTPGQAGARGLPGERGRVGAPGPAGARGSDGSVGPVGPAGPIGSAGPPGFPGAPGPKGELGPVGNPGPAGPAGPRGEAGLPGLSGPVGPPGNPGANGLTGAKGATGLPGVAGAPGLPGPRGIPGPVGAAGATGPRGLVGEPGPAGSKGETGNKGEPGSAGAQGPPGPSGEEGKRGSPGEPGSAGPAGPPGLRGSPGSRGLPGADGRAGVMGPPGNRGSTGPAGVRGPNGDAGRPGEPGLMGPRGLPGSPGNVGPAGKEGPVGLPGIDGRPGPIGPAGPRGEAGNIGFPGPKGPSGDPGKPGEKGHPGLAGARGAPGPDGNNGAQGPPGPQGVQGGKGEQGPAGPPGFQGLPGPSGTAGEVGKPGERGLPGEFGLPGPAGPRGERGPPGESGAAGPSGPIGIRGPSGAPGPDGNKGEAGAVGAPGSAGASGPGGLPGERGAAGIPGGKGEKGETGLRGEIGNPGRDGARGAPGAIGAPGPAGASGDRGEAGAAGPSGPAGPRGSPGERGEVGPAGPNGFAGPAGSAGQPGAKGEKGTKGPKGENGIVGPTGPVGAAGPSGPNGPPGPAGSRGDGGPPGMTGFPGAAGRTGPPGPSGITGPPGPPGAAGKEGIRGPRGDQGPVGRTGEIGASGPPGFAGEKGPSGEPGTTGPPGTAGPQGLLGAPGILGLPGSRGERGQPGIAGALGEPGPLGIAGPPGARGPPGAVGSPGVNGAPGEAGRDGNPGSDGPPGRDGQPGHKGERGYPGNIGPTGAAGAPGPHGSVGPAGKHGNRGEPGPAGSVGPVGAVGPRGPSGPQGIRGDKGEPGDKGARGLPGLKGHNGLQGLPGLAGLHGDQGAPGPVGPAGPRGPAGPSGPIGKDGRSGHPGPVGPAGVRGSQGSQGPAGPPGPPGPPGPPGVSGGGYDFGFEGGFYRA

B1: recombinant human MMP1 (wild-type), secreted by AdhGRE.MMP1-infected HTM cells and activated with APMA (active form, 41 kDa) (protein)
chain: FVLTEGNPRWEQTHLTYRIENYTPDLPRADVDHAIEKAFQLWSNVTPLTFTKVSEGQADIMISFVRGDHRDNSPFDGPGGNLAHAFQPGPGIGGDAHFDEDERWTNNFREYNLHRVAAHELGHSLGLSHSTDIGALMYPSYTFSGDVQLAQDDIDGIQAIYGRSQNPVQPIGPQTPKACDSKLTFDAITTIRGEVMFFKDRFYMRTNPFYPEVELNFISVFWPQLPNGLEAAYEFADRDEVRFFKGNKYWAVQGQNVLHGYPKDIYSSFGFPRTVKHIDAALSEENTGKTYFFVANKYWRYDEYKRSMDPGYPKMIAHDFPGIGHKVDAVFMKDGFFYFFHGTRQYKFDPKTKRILTLQKANSWFNCRKN
For B1, the “digestion of native rat tail collagen type I (PAGE gel, Coomassie stain)” value is given as “digested native collagen type I into smaller fragments”.
